Results on 19 sequences are retold here after the DeepSol protein solubility set.

The data set in a line: soluble on expression in E. coli; label from the status in PepcDB or PDB records.
For “MASGAKKLRNVNEVLSAKKPVSILLMGTDTGALGRTFAGRTDSMMVVTINPKTNKTTITSIPRDTAVNIPGYTSYGVSKINAAYAYGKSKTAITTVQKMLNIPIDFYAIINMGGMEKIIDEVGGVTLKPTLSFSYGGYTFKKGVKTHMNGKKALAYSRMRDDDPLGDYGRQTRQRKVIMALLNKSNSISSLLNEDFISSLSKQTQTDLTFNDLTALATNYRKATQYIKTTHLQGTSETIESQSMEVASKSELQRVTNYIRKALGLSHKTTGTIAQLEHHHHHH”, the “soluble on expression in E. coli” value was “soluble”.
As for “MRKSLVALLLLAASGLAQAQVDLREGHPDRYTVVRGDTLWDISGKFLRQPWKWPELWHANPQIQNPHLIYPGDTLSLVYVDGQPRLVLNRGESRGTIKLSPKIRSTPIAEAIPTIPLDKINSFLLANRIVDDEKTFTSAPYIVAGNAERIVSGTGDRIYARGKFADGQPAYGIFRQGKVYIDPKTKEVLGINADDIGGGEVVATEGDVATLALTRTTQEVRLGDRLFPTEERAVNSTFMPGEPSREVKGEIIDVPRGVTQIGQFDVVTLNRGQRDGLAEGNVLAIYKVGETVRDRVTGESVKIPDERAGLLMVFRTYKKLSYALVLMASRPLSVTDRVQNP”, the “soluble on expression in E. coli” value was “not soluble”.
As for “GSHMLPSCKEDEYPVGSECCPKCSPGYRVKEACGELTGTVCEPCPPGTYIAHLNGLSKCLQCQMCDPAMGLRASRNCSRTENAVCGCSPGHFCIVQDGDHCAACRAYA”, the entry is “soluble”; as for “TSLFTTADHYHTPLGPDGTPHAFFEALRDEAETTPIGWSEAYGGHWVVAGYKEIQAVIQNTKAFSNKGVTFPRYETGEFELMMAGQDDPVHKKYRQLVAKPFSPEATDLFTEQLRQSTNDLIDARIELGEGDAATWLANEIPARLTAILLGLPPEDGDTYRRWVWAITHVENPEEGAEIFAELVAHARTLIAERRTNPGNDIMSRVIMSKIDGESLSEDDLIGFFTILLLGGIDATARFLSSVFWRLAWDIELRRRLIAHPELIPNAVDELLRFYGPAMVGRLVTQEVTVGDITMKPGQTAMLWFPIASRDRSAFDSPDNIVIERTPNRHLSLGHGIHRCLGAHLIRVEARVAITEFLKRIPEFSLDPNKECEWLMGQVAGMLHVPIIFPKGKRLSE”, “soluble”; as for “MGSDKIHHHHHHMKILIIPNRGRSYNAVRPEAECYIALAEAGHDVTVISSGTNAYIDRYKKSKVKFIELKTLKKHSWAVIKQIRQYIKANNIDIVYATESKGIPNAAFACIGTKAKLVVYRGTSGGMYKTDPSNYLCMLHPRINGVIGVSSAVSANVREKVRGAIKANVETIYKGHDLSWYKEDAADLVSLGSNKKYFNILCVGSPRHHKGTHILLDAAKELNDIEDLRIILVGDNLDKQAFIDQINNSGMSEHILQPGFRSDVPAIAKACDLLILPSLSKEGLTRTVLESLSNGTPVVSSANDGVVETIENGFNGYLVPIGDVQAMADKIRMLYNDRVLLEKLSNHAQDIIKDKMSHHKTVTHMEAYFEKIIAQN”, “not soluble”.
As for “MKLALVNRQVILPESGTESFQCHASTLVRLPCGTLVAAWFAGLREGSEDTAIWLSRYEHNIWTTPQRVAAREGEAHWNPVLFYPSDKLWLFYKVGSDVHVWKTWFITSSDRGFTWSTPAPLVNDDILPRGPVKNKLLLASNGAWIAPGSIESPERWRAFVDRSSDEGKHWSISFVPLEPDNAISGTNVALWDGIKKGRLWECCLENLLRWDGVIQPTLWESSPGHIHMLLRSTRGAIFRSDSIDYGATWSVARATSLPNNNSGIDLVSMQDGTLILALNPVNGNWGKRYPLSLIASQDNGESWLPLLDLESDHGEYSYPAIISEGGIVHITYTWNRKNIVYCRLQTVLEHHHHHH”, the entry is “not soluble”; as for “MHWRLTVLFFASAQLSEGCLPMVPPEEPVTPVPVCPAGWFQFQRATGLWCYIFATPGAGWTTPQAACQANYGANLNGFESAAERTQFIQDMLASNLAPYTFVHIGAMRQCAPCTVNDPFVWLNGVSNDNTFANDYDSLYDLTGDCLSMDLGNNGQYNDITCDAETAYSCGKPAA”, “not soluble”; as for “MGSDKIHHHHHHMRIAFSTLGCPQAPLHEVTALAREHRVDGLELRIHDDGIVSDHMDRSRREQVRASISRTGLTVLSLGSYIKVCQPGPDETVVRQLRTALELAADVGAEAVRVFPGAGTGPTTDHYGIAVTELDMRGSSRLAAAAPIAERLGLRLLLETHDSHPRGVDISRILAPFRAEDPVGAIWDVMHPWRFGEDPVQTAHQLGSHYQYVQFKDATMDRQTGNLTMTLPGAGDIPLQRILDLVVARTPTTEEPWISLEWEKAWHPELPGLPEALIAFKTLLGRPESDAALSGSPRRPGSAAGARRNGTL”, “not soluble”.
In the case of “MSLNLTVSDVVELMGDAVVQTGEASLQTQPVEWVSVIETPVENFVRENELVLTTGIGCGEDEERFLQFVHDIAASNAAALAIAMGRFVKHIPDRVLHYASTHGLILLEIPWELRFADLIQSVLLQMEQRKQKEIEQAESLRKQLLEMEGHHHHHH”, the “soluble on expression in E. coli” value is listed as “soluble”.
As for “MLRVRLTKMQSDELDAIIGELQAQMPEASVTTSSIARYALEKYVSDHIAKRDGTKIFIEINTADATEEEIKNLYDLLSKLFDEAKENYSPMVHYMVGEILEPLMMKMARLMKLKKPEVKAGE”, the entry is “not soluble”; as for “NIDGYNELTVGELTGPTTIETFPTPDLPGGLAGGVSWGPDAERFAVSVTGRTVNTNVFVVETETGESEQWTAASTAGIPQETLIEPEVVRFDSFDGREIPALFSPPDGAADGAGADGDTPVIVDIHGGPESQRRPSFSGLTQYFLSRGYAVFEPNVRGSTGYGKAYTHLDDVEKRMDSVKDLRAGVDWLHNHPAVDPDRIVAMGGSYGGFMVLAALTEYPDLWAAGVDVVGIANFVTFLENTGDWRRELREAEYGSLDTDREFLESISPINNVDRINAPLFVLHGANDPRVPVGEAEQIAEQAAEQGVPVEKLVFDDEGHGISKRENRIEAYTAVVEFLDDHV”, “not soluble”; as for “MSLSKQISNLNSSSNKPKILSLFSGCGGLDLGFHQAGCETVWANDFSHWACESFRKNIGDVIVEGDIEQINPNDPTIPDCDIILGGFPCQDFSMIWKQPGLEGERGNLYKSFLRFVNAKKPKVFVAENVKGLLTANKKKAIQQIITDFENCGYYVQAKLYNFAEFGVPQFRERVLIVGVRLDTGFDFRHPEPTHNETGENGLKPYVTAGQAISNIPQNASNNELLKISDKTRRMLELIPEGGNFTDIPKDHPLYVKGMISHVYRRMHRNEPSKTIIAAGGGGTWGYHFPEPRAFTNRERARLQSFPDDFEFVGSTTEVRRQIGNAVPPQGVVELAKSILPIFSDNYEKVDLHEKLVEEKEILFHDRLSKIRGGKEGHHHHHH”, “soluble”.
As for “MEKIMPEEEYSEFKELILQKELHVVYALSHVCGQDRTLLASILLRIFLHEKLESLLLCTLNDREISMEDEATTLFRATTLASTLMEQYMKATATQFVHHALKDSILKIMESKQSCELSPSKLEKNEDVNTNLTHLLNILSELVEKIFMASEILPPTLRYIYGCLQKSVQHKWPTNTTMRTRVVSGFVFLRLICPAILNPRMFNIISDSPSPIAARTLILVAKSVQNLANLVEFGAKEPYMEGVNPFIKSNKHRMIMFLDELGNVPELPDTTEHSRTDLSRDLAALHEICVAHSDELRTLSNERGAQQHVLKKLLAITELLQQKQNQYTKTNDVR”, the entry is “soluble”; as for “MAKNAPRFVCQACGAVYPRWMGRCEACGEWNSIAEEAPAEALPKGQTGGRGGQRLSFVSLEGVGAPPPRLLTGIPELDRVAGGGLVAGSALLIGGDPGIGKSTLLLQAVAGLARGGARSVYISGEEAIDQVRLRALRLGLEKAPVDLAAATSVRDIVATLDSGEPPDVVVIDSIQTMYLDTLDSAPGTVAQVRAGSHELIRLAKRRGFVLFLVGHVTKEGQMAGPRVMEHMVDAVIYFEGERGHPFRILRAVKNRFGATDEIGVFEMSDAGLSEVPNPSALFLAERRGNVTGSCVFAGMEGTRPMLVEIQALVGPSAPGSARRAVVGWDGGRLAMVMAVLETRCGLALGGNDVYLNVAGGLRIGEPAADLAVAAALVSSFSGVPVPPDMVVFGEIGLSGEIRAVAHGDTRLKEAAKLGFDQALMPARPRDSGKRGGPGVKEGLRMREIGHLQDLVALLAPPENAGQGQRLEHHHHHH”, “soluble”.
With “MQDRCPHQDHRSIPTIMPDLEPDTVSALEAPEFAPAQFVRWFREVAPYVHAFRGKTFVVAFGGELVQAGALNVLVQDLSLLSALGIHLVLVHGSRPQVNEQLRLKGYTQQFGRGLAPTDPAALECAKEAAGEIRLDIEAAFSQGLPNTPMSHSHIRVLSGNFVTARPTGVVDGIDYKHTGQVRKIDVDALKFAIEQGSVVLLSPLGFSPTGDAFNLAMEDLATSVAVALRAEKLIFLSGEPGVLDGNGAVDTELARVDADALLARGELDEDTTYFLQHASLAVKRGVARAHLVPYALDGSVLLEIFTHDGVGTMVVEDTLDDLRAATLDDVGAILSLIEPLETDGTLVPRPRSAIERDVERFTVLEHDGVIYGCAALYPFPEDQMAEMACLIVHPEWQGSGEGEILLRHMESRARASGARRLFVLTTRTSHWFMKRGFVRGGVADLPRDKQNNYNRSRNSLVFIKKL”, the “soluble on expression in E. coli” value is recorded as “not soluble”.
As for “MANDIVPQDENGAGMPVEFDASTITGEEKAAILLLSLNEQDAAGIIRHLEPKQVQRVGSAMARAKDLSQEKVSAVHRTFLEDIQKYTNIGMGSEDFMRNALVAALGEDKANNLVDQILLGTGSKGLDSLKWM”, the entry is “not soluble”; as for “MGSDKIHHHHHHMVIHKETMRSANEKSVLQRIFTEGPISKSQVARDVSLNKVTVSQIINKFISSRLVVEAGSGDSTQQGGRKPELVQINSKYGYVVCIDLGYQELSVLSMSINGQKLDSRHTIFGNDDINIAIEKIYEILVEFQEMHKERLLGLLVSIHGIVHKNQVIYSPFWNMKQIDLADTLSKKFDIPVILENEANLTATFERDYSVNEIQNAVSISMHKGIGAGIIIDGELYRGRKGEAGEIGQTVAFESENQSLEKSNKIEDVCSPQVILARIKNAKKLEYINWQLVRQMFDDKDQETLEILKEFENNVAKIINNVIVSFDPDVLVVNAYIFKEFPEILERISNGFAHVSVRNTPIVLSENVKNASLYGGCAQMIRTILGVSKLKLQYKK”, “not soluble”.
Turning to “MPAIVLIGAQWGDEGKGKATDLLGGRVQWVVRYQGGNNAGHTVVLPTGENFALHLIPSGVLTPGVTNVIGNGVVIDPGVLLNELRGLQDRGVDTAKLLISADAHLLMPYHIAIDKVTERYMGSKKIGTTGRGIGPCYQDKIARIGIRVADVLDPEQLTHKVEAACEFKNQVLVKIYNRKALDPAQVVDALLEQAEGFKHRIADTRLLLNAALEAGETVLLEGSQGTLLDVDHGTYPYVTSSNPTAGGAAVGSGIGPTRIGTVLGILKAYTTRVGSGPFPTELFDEHGEYLSKTGREFGVTTGRRRRCGWFDAVIARYAARVNGITDYFLTKLDVLSSLESVPVCVGYEIDGRRTRDMPMTQRDLCRAKPVYEELPGWWEDISGAREFDDLPAKARDYVLRLEQLAGAPVSCIGVGPGREQTIVRRDVLQDRP”, the “soluble on expression in E. coli” value is “not soluble”.
On to “MGSDKIHHHHHHMKPIDLDKLDLLTLSILVSLYENKSATHVSRILDVPASKISRCLHTARLIFGDELFIRRKYGLVPNDYAGKIYPIAKEIVECAKHFNRLNSAEQSHNRYFELVIPGMIAYAYPRALMKAIKEHNKNIHINVSSWSSHSLESVTSDPHCIVMCCCKGPEEILCFDQKLQVEVLATMNRQYLLSCRKHPILKQDISLETIAKYPYINTFIGTQAPILNPFQEYCQAKDLSLNTEMTITSVSSLFDYLSDCQSLAITPYKAVYDMLDDDSGLHACQLSEYECNRLFEVVEPLKLVLVTHPSADNEDTAWLKQQIRELTHELI”, for which the “soluble on expression in E. coli” value is recorded as “not soluble”.
